Key:
rat serum albumin = biological target: T1, rat serum albumin (rat); assay: SPR Biacore T200, albumin amine-coupled, fusion protein as analyte
T1 chain: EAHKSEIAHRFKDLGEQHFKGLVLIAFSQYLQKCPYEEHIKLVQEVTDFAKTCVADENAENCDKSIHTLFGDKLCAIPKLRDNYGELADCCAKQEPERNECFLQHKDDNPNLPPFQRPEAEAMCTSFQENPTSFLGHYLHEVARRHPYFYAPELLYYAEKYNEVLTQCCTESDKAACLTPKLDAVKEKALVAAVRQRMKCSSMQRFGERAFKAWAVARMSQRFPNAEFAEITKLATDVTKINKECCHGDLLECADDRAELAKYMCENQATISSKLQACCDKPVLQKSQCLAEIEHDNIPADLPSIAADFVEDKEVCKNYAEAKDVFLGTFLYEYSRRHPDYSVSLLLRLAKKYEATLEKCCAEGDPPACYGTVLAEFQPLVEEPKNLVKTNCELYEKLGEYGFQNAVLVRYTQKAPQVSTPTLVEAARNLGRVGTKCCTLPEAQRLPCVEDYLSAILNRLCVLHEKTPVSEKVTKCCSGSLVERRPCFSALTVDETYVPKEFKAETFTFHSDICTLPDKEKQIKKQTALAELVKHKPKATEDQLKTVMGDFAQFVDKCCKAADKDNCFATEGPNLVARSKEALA
Method: (§1) Coupling of serum albumins from different species to an S series CM5 sensor chip (GE, Cat. 29-1049-88) was performed using an amino coupling kit (GE, Cat No. BR-1000-50). The albumin from each species was diluted to 2 μg/mL. After the CM5 chip was activated with EDC/NHS, the diluted albumin was flowed over the chip to reach a surface response value of about 200 (180 to 230) RU, and then the chip was blocked with ethanolamine. The blank control channel also needed to be activated with EDC/NHS and blocked with ethanolamine. […] The samples of 0051 and 0054 at different concentrations were separately flowed through the albumin-coupled and blank channels for 3 min at a flow rate of 50 μL/min, with a dissociation time of 4 min. After the end of each cycle, the chip was regenerated using 10 mM glycine-hydrochloric acid (pH 1.5) (GE, Cat. #BR-1003-54). The reaction signals were detected in real-time using Biacore T200 (GE) to obtain the association and dissociation curves, and the data obtained were fitted with a Langmuir 1:1 binding model using the BIAevaluation version 4.1 software at appropriate concentration points to obtain the affinity values.

[1] = biological target: human serum albumin (HSA) (human); assay: as above
Method: as §1

[2] = biological target: mouse serum albumin (mSA) (mouse); assay: as above
Method: as §1

mouse RXFP1 receptor = biological target: T2, mouse RXFP1 receptor (mouse, UniProt Q6R6I7 1-758); assay: cell-based or functional assay
T2 sequence (looked up): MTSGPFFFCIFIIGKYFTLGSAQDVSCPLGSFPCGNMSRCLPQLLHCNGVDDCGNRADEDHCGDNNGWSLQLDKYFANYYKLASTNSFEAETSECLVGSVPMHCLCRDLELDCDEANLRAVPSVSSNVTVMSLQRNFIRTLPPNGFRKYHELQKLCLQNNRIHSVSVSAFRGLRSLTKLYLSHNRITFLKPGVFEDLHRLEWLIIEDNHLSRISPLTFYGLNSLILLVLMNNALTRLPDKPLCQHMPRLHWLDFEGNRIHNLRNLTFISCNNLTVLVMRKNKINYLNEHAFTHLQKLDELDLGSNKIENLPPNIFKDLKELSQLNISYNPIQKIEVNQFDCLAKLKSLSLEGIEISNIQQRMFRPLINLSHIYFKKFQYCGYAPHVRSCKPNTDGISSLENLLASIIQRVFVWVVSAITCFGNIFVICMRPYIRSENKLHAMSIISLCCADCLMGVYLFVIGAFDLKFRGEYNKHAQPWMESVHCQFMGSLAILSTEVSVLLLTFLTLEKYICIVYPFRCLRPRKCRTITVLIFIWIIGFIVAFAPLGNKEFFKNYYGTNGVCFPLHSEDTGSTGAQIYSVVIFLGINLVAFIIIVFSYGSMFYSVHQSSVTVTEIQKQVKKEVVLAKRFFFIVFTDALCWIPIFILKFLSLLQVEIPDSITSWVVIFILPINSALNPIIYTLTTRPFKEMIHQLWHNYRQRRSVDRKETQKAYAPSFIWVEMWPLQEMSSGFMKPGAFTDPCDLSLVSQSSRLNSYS

[3] = biological target: T3, cynomolgus monkey RXFP1 receptor (cynomolgus monkey, UniProt H9ERA2 1-757 (rhesus entry)); assay: cell-based or functional assay
T3 sequence: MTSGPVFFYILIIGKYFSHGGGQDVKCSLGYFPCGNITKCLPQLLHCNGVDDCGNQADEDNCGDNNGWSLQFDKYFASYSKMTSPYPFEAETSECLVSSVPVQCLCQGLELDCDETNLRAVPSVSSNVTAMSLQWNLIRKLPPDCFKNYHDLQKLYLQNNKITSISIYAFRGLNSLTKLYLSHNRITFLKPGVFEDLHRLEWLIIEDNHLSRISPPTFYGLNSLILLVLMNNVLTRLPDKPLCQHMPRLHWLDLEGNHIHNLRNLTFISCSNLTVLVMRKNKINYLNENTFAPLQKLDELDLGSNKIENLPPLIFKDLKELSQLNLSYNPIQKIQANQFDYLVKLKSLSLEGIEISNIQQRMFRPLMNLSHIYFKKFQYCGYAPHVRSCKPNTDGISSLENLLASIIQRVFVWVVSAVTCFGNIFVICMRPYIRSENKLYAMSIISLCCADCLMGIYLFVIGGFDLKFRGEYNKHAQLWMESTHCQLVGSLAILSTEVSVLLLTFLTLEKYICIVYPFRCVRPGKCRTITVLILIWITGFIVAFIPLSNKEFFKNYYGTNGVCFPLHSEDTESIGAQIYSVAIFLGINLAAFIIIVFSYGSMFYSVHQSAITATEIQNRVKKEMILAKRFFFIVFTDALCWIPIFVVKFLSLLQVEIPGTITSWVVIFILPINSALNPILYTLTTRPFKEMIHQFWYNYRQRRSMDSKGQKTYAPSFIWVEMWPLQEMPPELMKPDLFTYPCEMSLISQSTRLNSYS

human RXFP2 receptor = human RXFP2 receptor (human, UniProt Q8WXD0 1-754); assay: cell-based or functional assay

B1: 0051 (other)
chain: EVQLLESGGGLVQPGGSLRLSCAASGFTFLTSCMGWFRQAPGKEREGVSSIYTVGGSTFYTNSVKGRFTISRDNSKNTLYLQMNSLRAEDTAVYYCAAGSPARCRLRDPTTFDYWGQGTLVTVSSGGGGQGGGGQGGGGQGGGGQGGGGQSWMEEVIKLCGRELVRAQIAICGMSTWSGGGSGGSGGGQLYSALANKCCHVGCTKRSLARFC
notes: Single-chain fusion: anti-HSA VHH, linker, relaxin-2 B chain, linker, relaxin-2 A chain; also called fusion protein 0051; molecule 0051
- Kd (rat serum albumin): 1.95 nM
- koff (rat serum albumin): 0.00439 s⁻¹
- kon (rat serum albumin): 2.25e+06 M⁻¹ s⁻¹
- Kd [1]: 0.0422 nM
- koff [1]: 0.000207 s⁻¹
- kon [1]: 4.91e+06 M⁻¹ s⁻¹
- Kd [2]: 37.9 nM
- koff [2]: 0.0471 s⁻¹
- kon [2]: 1.24e+06 M⁻¹ s⁻¹
- EC50 (nM), cAMP production in CHO-K1 cells with receptor overexpression (mouse RXFP1 receptor): 21.7 nM
- EC50 (nM), cAMP production in CHO-K1 cells with receptor overexpression [3]: 25.1 nM
- EC50 (nM), cAMP production in CHO-K1 cells with receptor overexpression (human RXFP2 receptor): 1250 nM

— patent US20250312444A1 (BEIJING TUO JIE BIOPHARMACEUTICAL, published 2025)
